Holding throughout (conditions): both partners purified
Assay [1] addresses T1, full-length human SOX2 (recombinant, N-terminal His-tag, 327 amino acids) (human, UniProt P48431 1-317).
T1 construct: human SOX2, full length, 317 amino acids; with the tag peptide 327 amino acids; Immobilised on an AR2G chip in BLI
The assay is described as follows: BLI; 0.2 mg/ml SOX2 immobilised on an AR2G chip, quenched with 1 M ethanolamine; p300 (0-400 nM), KIX (0-43 uM), fragments (3 uM KIX and BR, 0.8 uM KB) in PBS; global fit, 1:1 binding model; BLItz. In general terms: Biolayer interferometry detects binding as a change in optical thickness at a sensor tip.

The target in assay [2] is T2, C-terminal domain of SOX2 (aa 150-317) (human, UniProt P48431 150-317).
T2 construct: also called SOX2CTD; CTDSOX2; source: E. coli BL21(DE3), purified from the supernatant (HisTrap HP, Superose 6 Increase)
T2 sequence (P48431 150-317): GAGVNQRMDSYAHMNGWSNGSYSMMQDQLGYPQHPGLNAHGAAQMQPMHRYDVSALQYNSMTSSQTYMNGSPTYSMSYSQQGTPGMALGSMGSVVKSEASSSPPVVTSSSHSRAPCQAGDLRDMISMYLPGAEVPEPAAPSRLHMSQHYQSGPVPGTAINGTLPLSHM
In words: BLI; SOX2DBD or SOX2CTD with KIX or bromodomain; who was immobilised not given; global fit to a 1:1 binding model (BLItz Pro v.1.2.1.5).

In assay [3] the target is T3, DNA-binding domain of SOX2 (aa 39-127) (human, UniProt P48431 39-127).
T3 construct: also called SOX2DBD; DBDSOX2; source: E. coli BL21(DE3), purified from the supernatant (HisTrap HP, Superose 6 Increase)
T3 sequence (P48431 39-127): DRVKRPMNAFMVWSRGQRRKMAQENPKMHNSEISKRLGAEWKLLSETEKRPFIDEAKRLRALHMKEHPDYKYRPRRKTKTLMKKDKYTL
The assay is described as above.

The next assay has as its target T4, full-length human SOX2 (human, UniProt P48431 1-317).
T4 construct: human SOX2, UniProt P48431, 317 amino acids; with the N-terminal His-tag peptide the recombinant protein has 327 amino acids; cloned into the pVFT1S plasmid
The assay is described as follows: BLI; SOX2 (0.2 mg/ml) immobilised on an AR2G chip, quenched with 1 M ethanolamine; p300 fragments in PBS; global fit to a 1:1 binding model (BLItz Pro v.1.2.1.5).

In general, koff refers to a measure of how fast the partners let go of each other. A lower koff goes with a long-lived complex. The kon is the second-order rate constant of association. Read a high kon as fast association. Usually Kd stands for the equilibrium constant for the complex coming apart. Read a low Kd as higher affinity.

T4 sequence (P48431 whole entry): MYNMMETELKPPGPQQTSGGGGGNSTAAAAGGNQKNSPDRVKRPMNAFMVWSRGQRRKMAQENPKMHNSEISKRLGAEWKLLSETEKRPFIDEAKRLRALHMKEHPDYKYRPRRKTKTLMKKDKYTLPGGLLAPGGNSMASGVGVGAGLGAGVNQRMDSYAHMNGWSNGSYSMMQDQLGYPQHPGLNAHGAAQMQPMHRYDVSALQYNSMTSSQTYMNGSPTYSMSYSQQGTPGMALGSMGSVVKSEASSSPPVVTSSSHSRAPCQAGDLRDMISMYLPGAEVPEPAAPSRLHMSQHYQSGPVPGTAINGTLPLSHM
T1 sequence (P48431 whole entry): as above

B1: p300 bromodomain (aa 1067-1139) (domain or fragment, human, UniProt Q09472 1067-1139, looked up)
chain: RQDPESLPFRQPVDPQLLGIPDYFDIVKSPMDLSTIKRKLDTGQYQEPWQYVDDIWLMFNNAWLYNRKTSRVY
notes: human p300, bromodomain, residues 1067-1139; also called p300BD; BD; source: E. coli BL21(DE3), purified from the supernatant (HisTrap HP, Superose 6 Increase)
For the molecule B1, the “fold higher KD than p300KIX” value in assay [1] was determined as 20.1 fold.

B2: p300 bromodomain (aa 1067-1139) (domain or fragment, human, UniProt Q09472 1067-1139, looked up)
chain: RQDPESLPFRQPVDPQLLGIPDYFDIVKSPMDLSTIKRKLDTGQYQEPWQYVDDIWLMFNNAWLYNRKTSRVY
notes: human p300, UniProt Q09472, bromodomain, aa 1067-1139; also called BD; p300BD; source: E. coli BL21(DE3), purified from the supernatant (HisTrap HP, Superose 6 Increase)
B2 came in with an off-rate constant (koff) in assay [2] of 0.0951 s⁻¹. In assay [3], this molecule registered a koff of 0.0265 s⁻¹ and a kon of 172 M⁻¹ s⁻¹. Also, in the assay with full-length human SOX2, the equilibrium dissociation constant (Kd) worked out at 54 µM, the koff stood at 0.00606 s⁻¹ and the kon was determined as 112 M⁻¹ s⁻¹.

B3: p300 KIX-BD fragment (aa 566-1139) (domain or fragment)
chain: not shown
notes: human p300, KIX + bromodomain, residues 566-1139; also called p300KB; KB; source: E. coli BL21(DE3), purified from the supernatant (HisTrap HP, Superose 6 Increase)
As for B3, in assay [1], the “fold lower KD than p300BD” value came to 834 fold and the “fold lower KD than p300KIX” value is 41.4 fold.

B4: p300 KIX domain (aa 566-646) (domain or fragment)
chain: not shown
notes: human p300, UniProt Q09472, KIX domain, aa 566-646; also called KIXp300; source: E. coli BL21(DE3), purified from the supernatant (HisTrap HP, Superose 6 Increase)
On to B4, for which, in assay [2], the koff came to 0.0849 s⁻¹ and the on-rate (kon) turned out to be 1720 M⁻¹ s⁻¹. In assay [3], this molecule came in with a koff of 0.0469 s⁻¹ and a kon of 5060 M⁻¹ s⁻¹.
